± gives the standard deviation of the averaged measurements.
The sequences below were run on Saccharomyces cerevisiae (assay: protein stability index of tFT-peptide fusion (C-terminal peptide) (PSI (0-1 scale)); higher = more stable (slower turnover)). Conditions: genetic background: wild type; temperature: 37 C.
Method: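 MPS profiling in S. cerevisiae of the tFT-X12 degron library: putative degron peptides plus stable controls, 12 aa, fused to the C-terminus of a sfGFP-mCherry timer. Cells are FACS-sorted into 8 mCherry/sfGFP bins and deep-sequenced. PSI runs from 0 (unstable) to 1 (stable). Backgrounds are wild type, das1Δ and doa10Δ at 30 °C, and wild type, das1Δ, cdc34-1 and cdc53-1 at 37 °C; 2-3 technical replicates each.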
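Further: PSI is a weighted mean of sequencing reads over stability bins, variants kept only with over 10 reads, mCherry proximal and sfGFP distal, peptide attached via GGGS linker.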

Sequence | protein stability index
CVGLYCLFVLLG | 0.278 ± 0.0049
CVISLVTAVRLF | 0.544 ± 0.018
DDVRFLLWGLCC | 0.3644 ± 0.0027
DQPLWIGVLAYC | 0.487 ± 0.022
DRRYIISLIYIL | 0.105 ± 0.0088
DSGMLDFLLMAW | 0.53 ± 0.0056
DSTLLYRPPSPA | 0.683 ± 0.022
DVVVIFGILCYC | 0.263 ± 0.0032
DYRCWCAILVSS | 0.246 ± 0.013
DYSVIPSLALLP | 0.714 ± 0.02
ECLRLTTKKKIN | 0.197 ± 0.088
EDRKRNKERRWT | 0.57 ± 0.01
EFWWPFDRRGVI | 0.822 ± 0.012
EKKRERQKGEME | 0.717 ± 0.012
ETQKEKRENAKP | 0.677 ± 0.024
EVGFHRRWVALS | 0.275 ± 0.053
EWGLGEIVVKVA | 0.2153 ± 0.0017
FAFPTPPPLLFD | 0.736 ± 0.013
FCGWLGVYLVKG | 0.668 ± 0.062
FCSFSWFLFLRS | 0.312 ± 0.022
FCVLLFCAVSDL | 0.398 ± 0.0074
FCVVFFLSLVFL | 0.49 ± 0.0029
FFDLSLYSLCLC | 0.4649 ± 0.0011
FFFFPVYFIFVV | 0.32 ± 0.0059
FFFFSMFSFFIP | 0.531 ± 0.0034
FFFVLVSGWWGV | 0.374 ± 0.013

Sequence | protein stability index
FFLDRLVIRLIA | 0.0735 ± 0.014
FFLFFLSFGCFL | 0.505 ± 0.016
FFLKPVPSLFLC | 0.0767 ± 0.016
FFLVLWSSLLSP | 0.5441 ± 0.0011
FFRPWRLVGCLV | 0.266 ± 0.02
FFSFTVLVSYGF | 0.284 ± 0.0081
FFSLMFVFLTVF | 0.23 ± 0.012
FFSLRRAVTVSA | 0.3273 ± 0.002
FFSPFFFFLFRL | 0.3971 ± 0.0026
FFVISVVLCLLV | 0.434 ± 0.015
FFVRSWWVELLF | 0.5502 ± 0.0055
FFYRFQDLPRIC | 0.537 ± 0.033
FGFFLFIFFFFR | 0.349 ± 0.031
FGFFRLVIVCFR | 0.283 ± 0.013
FGFWGVVSCCNA | 0.5833 ± 0.0054
FGPRLLRVMRLL | 0.207 ± 0.061
FGVLFFVFVFVC | 0.203 ± 0.03
FGVLLVWWYGLF | 0.314 ± 0.0076
FGVSLFLPLSVV | 0.4184 ± 0.0035
FIFYYTVLLLCR | 0.1312 ± 0.0012
FIICAASWFFLG | 0.225 ± 0.079
FILATGKGRWVV | 0.532 ± 0.024
FILSLSFVFSRP | 0.441 ± 0.026
FIRLTFLRLSCI | 0.391 ± 0.0049
FLASLCFFPLLC | 0.5038 ± 0.0034
FLAWSVGILCRV | 0.318 ± 0.023

Sequence | protein stability index
FLCLFFLAVIKL | 0.356 ± 0.013
FLFLLLFLLLCC | 0.4634 ± 0.00047
FLFPFLSVLFLL | 0.232 ± 0.014
FLFSVVFFFFSL | 0.4586 ± 0.0045
FLLEVFVLGRTL | 0.577 ± 0.012
FLLFSFFFFFFF | 0.488 ± 0.008
FLLPILSSSPVL | 0.6913 ± 0.0023
FLRLSFLIFPLH | 0.546 ± 0.029
FLSCSRRPLRCW | 0.469 ± 0.021
FMPFSLLALFVW | 0.328 ± 0.0069
FNLTCLLISFFN | 0.553 ± 0.028
FPCIFFFCLFIL | 0.276 ± 0.016
FPLGMFWVCFFV | 0.357 ± 0.015
FPYARHLSVLLL | 0.54 ± 0.007
FRFSCLFSLFLS | 0.24 ± 0.025
FRLFSLWFCWVR | 0.26 ± 0.025
FRVSAFFLPFLS | 0.486 ± 0.048
FSFLLYASLVTH | 0.3145 ± 0.00081
FSGFPLTLSPPL | 0.73 ± 0.018
FSVLLLANFCFF | 0.528 ± 0.015
FSVLRLVIVSLL | 0.0783 ± 0.029
FSVSYFRLVRLC | 0.08731 ± 0.00027
FTNLDYTKEKNN | 0.178 ± 0.0045
FVIVSSCIGYAL | 0.561 ± 0.032
FVLLSVCFFGCL | 0.438 ± 0.044
FVMLSFLVSSLP | 0.495 ± 0.0055

Each sequence was assayed on Saccharomyces cerevisiae in the same assay as above. Conditions: genetic background: wild type; temperature: 30 C.

Sequence | protein stability index
CVGLYCLFVLLG | 0.248 ± 0.004
CVISLVTAVRLF | 0.4644 ± 0.0021
DDVRFLLWGLCC | 0.324 ± 0.027
DQPLWIGVLAYC | 0.455 ± 0.025
DRRYIISLIYIL | 0.113 ± 0.059
DSGMLDFLLMAW | 0.598 ± 0.16
DSTLLYRPPSPA | 0.7089 ± 0.0008
DVVVIFGILCYC | 0.267 ± 0.013
DYRCWCAILVSS | 0.2611 ± 0.00049
DYSVIPSLALLP | 0.218 ± 0.021
ECLRLTTKKKIN | 0.173 ± 0.011
EDRKRNKERRWT | 0.4256 ± 0.0024
EFWWPFDRRGVI | 0.748 ± 0.011
EKKRERQKGEME | 0.579 ± 0.12
ETQKEKRENAKP | 0.713 ± 0.0091
EVGFHRRWVALS | 0.189 ± 0.0082
EWGLGEIVVKVA | 0.259 ± 0.057
FAFPTPPPLLFD | 0.751 ± 0.027
FCGWLGVYLVKG | 0.494 ± 0.076
FCSFSWFLFLRS | 0.405 ± 0.034
FCVLLFCAVSDL | 0.317 ± 0.03
FCVVFFLSLVFL | 0.495 ± 0.046
FFDLSLYSLCLC | 0.378 ± 0.064
FFFFPVYFIFVV | 0.311 ± 0.0065
FFFFSMFSFFIP | 0.477 ± 0.054
FFFVLVSGWWGV | 0.36 ± 0.041

Sequence | protein stability index
FFLDRLVIRLIA | 0.105 ± 0.052
FFLFFLSFGCFL | 0.529 ± 0.048
FFLKPVPSLFLC | 0.14 ± 0.014
FFLVLWSSLLSP | 0.454 ± 0.036
FFRPWRLVGCLV | 0.331 ± 0.065
FFSFTVLVSYGF | 0.352 ± 0.017
FFSLMFVFLTVF | 0.278 ± 0.033
FFSLRRAVTVSA | 0.349 ± 0.069
FFSPFFFFLFRL | 0.414 ± 0.058
FFVISVVLCLLV | 0.43 ± 0.0088
FFVRSWWVELLF | 0.424 ± 0.0097
FFYRFQDLPRIC | 0.397 ± 0.074
FGFFLFIFFFFR | 0.402 ± 0.12
FGFFRLVIVCFR | 0.31 ± 0.16
FGFWGVVSCCNA | 0.63 ± 0.18
FGPRLLRVMRLL | 0.22 ± 0.04
FGVLFFVFVFVC | 0.177 ± 0.024
FGVLLVWWYGLF | 0.289 ± 0.039
FGVSLFLPLSVV | 0.407 ± 0.017
FIFYYTVLLLCR | 0.181 ± 0.014
FIICAASWFFLG | 0.224 ± 0.025
FILATGKGRWVV | 0.333 ± 0.1
FILSLSFVFSRP | 0.405 ± 0.073
FIRLTFLRLSCI | 0.255 ± 0.022
FLASLCFFPLLC | 0.456 ± 0.014
FLAWSVGILCRV | 0.317 ± 0.018

Sequence | protein stability index
FLCLFFLAVIKL | 0.383 ± 0.028
FLFLLLFLLLCC | 0.407 ± 0.0033
FLFPFLSVLFLL | 0.245 ± 0.034
FLFSVVFFFFSL | 0.421 ± 0.066
FLLEVFVLGRTL | 0.4742 ± 0.0019
FLLFSFFFFFFF | 0.482 ± 0.011
FLLPILSSSPVL | 0.727 ± 0.035
FLRLSFLIFPLH | 0.498 ± 0.02
FLSCSRRPLRCW | 0.463 ± 0.027
FMPFSLLALFVW | 0.343 ± 0.017
FNLTCLLISFFN | 0.519 ± 0.045
FPCIFFFCLFIL | 0.271 ± 0.05
FPLGMFWVCFFV | 0.264 ± 0.015
FPYARHLSVLLL | 0.472 ± 0.029
FRFSCLFSLFLS | 0.224 ± 0.011
FRLFSLWFCWVR | 0.348 ± 0.015
FRVSAFFLPFLS | 0.4 ± 0.013
FSFLLYASLVTH | 0.314 ± 0.015
FSGFPLTLSPPL | 0.7224 ± 0.0042
FSVLLLANFCFF | 0.482 ± 0.0056
FSVLRLVIVSLL | 0.0995 ± 0.012
FSVSYFRLVRLC | 0.0191 ± 0.027
FTNLDYTKEKNN | 0.29 ± 0.017
FVIVSSCIGYAL | 0.499 ± 0.015
FVLLSVCFFGCL | 0.442 ± 0.024
FVMLSFLVSSLP | 0.4255 ± 0.0037

Reference: the supplement of paper PMC10724198
